The record followed here is the DeepSol protein solubility set.

This data set can be described thus: soluble on expression in E. coli; label from the status in PepcDB or PDB records.
For the sequence “MSDIKNITKLQIEDKGKKYSLYSLKKLSQELGKDVTRLPYSIRVLLENQLRNIDGYKVKEDDMHKVLDWDAKASSRPEIPHMPARVVMQDFTGVPAVVDLAAMRKAIKDAGGDADKINPLVDTAMVIDHSVQVDFYGTKTALAQNVAKEFERNGERYSLLKWAQKAFDDFIVVPPGMGIIHQVNLEYLAKGALVKNINGEDVIYPDTLVGTDSHTTMINGVGVVGWGVGGIEAEAVMLGQPYYMVLPDVVGVKFTGKLKTGVTATDLVLKVTEVLRKHGVVGKFVEYYGEGLESLSLPDRATIANMAPEYGATIGFFPVDEVTLDFFNNTNRSELVDAAREMYKEQLLFRENPAEEPEYSSIVEIDLSEVESNLAGPKRPQDRVAFHDMKKAFAEALVHEQGLHGFGLTDEQLQKLAEVKGLNERITHGSVAIAAITSCTNTSNPSLLLGAGLLAKKANEKGLKVKPFVKTSLAPGSQVVTQYLEKANLLPELENLGFNLVGYGCTTCIGNSGPLDEPVVEAINEADLIVASVSSGNRNFEGRINPHVKANYLASPIHVVAYALAGTVDFDPVEDAIGKDAEGNDVYLADIWPTTEEIAAIQSHVINSDMFKKAYATVLDGTEDWQKLKAPEGKLYEFDSSSTYIQCPNFFEKFAEGNDDLDIKGARTLLMLGDSVTTDHISPAGAIPEEYPAGQYLKSHGVEKKDFNSYGSRRGNHEVMMRGTFANIRIRNLLLDNVEGGFTKYHLDGSQQYVFDAAMKYKEKGIPLVILAGKEYGTGSSRDWAAKGTFLLGVKAVIAESYERIHRSNLVGMGVLPLEYVNGQNAKTLGLDGTEMFNIKNLNNIKPRQIVIVEAVHPKTAHTTTFEALARLDADVDVDYLKNGGILQTVLKDIMGDKKESKSTQSTTSKGCGSADTSSETSCPFAKIANFFKKLFK”, the “soluble on expression in E. coli” value is listed as “not soluble”. “MNKANPKNIPPLAPKKVFIKTYGCQMNVYDSQRMTDSLSSKGYVATQTPNDADLILVNTCHIREKAAEKLYSDLGRLRVMRQERTPDKPLMVGVTGCVAQAEGSEILRRAPIVDLVIGPQMYHRLPDLLEQTKQGKKIVATEYAVEDKFAHLPPHNKRAVRKRGVSAFLTVQEGCDKFCTFCVVPYTRGAEISRSVEQITEEARQLIEAGVKEITLLGQNVNGWHGQNVNGKTWRLGDLLYHLAKLDGLKRLRYTTSHPRDMDDSLIAAHRDLDILMPYLHLPVQSGSDRILKAMNRQHKSIHYLQLIEKIRNARPDIAFSGDFIVGFPGETDEDFEETIKLIKQVEYSSAYSFKYSPRPGTVGATMKNHVEEAVKDARLQHLQVLLLEQQNAFLRSKIGQTTDVLIEKAGRHSGQMVGRSPWLLPVVVDTQASTGTVIPIHIKNTSSNSFVGEMTNM”: the “soluble on expression in E. coli” value was “not soluble”. With “MGSDKIHHHHHHMTAKVISFINMKGGVGKTTLCVGVSEFMAHFKSKKILLIDLDPQFNATQTLMDMYDLTDQYMNDIRFNKTIRLLFEETHSVSERPVLPKPDKVILHLDTSDVIDGELDIICGSIDLIKDDDSRKSKYKRVRKFLREQGLLKHYDYIFIDCPPTISFYTDAALYASDYYIVPTRIDRYSILGINLLKTVIEQAKFDDDLSIEPLGLIYTNYPTNNIPAPKQQEILDVLEENKDVLEIGVFRNKFHYLEHLMTGKSGNIASKYVKSKKDIEKISVEIESKVH” the entry was “not soluble”; with “MFNALLLTQQDKITHATVTQINDDQLPAGNVTVAVNYSSLNYKDGLAITGKGKIIREFPMVPGIDFAGTVLESADARYQVGDAVVLTGWGVGENHWGGMAQKARLNADWLVKLPQGLTSQQAMMIGTAGFTAMLCVQALIDGGIKPEDGEILVTGASGGVGSVAVTLLAQLGYKVVAVTGRVAQNGPLLEQLGASRVIDRQEFSEASRPLEKQLWVGAVDTVGSKVLAKVLAQMHYNGVVAACGLAGGFDLPTTVMPFILRNVRLQGVDSVSCPVEKRLAAWKKLAELLPASYYAQACHEISLSQVPEYAEAITNGQVTGRVVVKL”, “not soluble”; with “MQFNYDVIVVGAGHAGCEAAAAAAKLGSQVLLITPDMNKIAQMSCNPAVGGIAKGQIVREIDALGGRMGIVTDATAIQFRMLNRSKGPAMWSPRAQSDRMRFMEAWRDIVEHEPNLYMWQDSVRCLSIRQGAVAGVVTALGVEFQARTVVLTTGTFLGGVMHFGERMIEGGRIAEPAFHGITEQLRDLGFRTDRMKTGTPARIDGRSIDFSLTTEQSGEEDHHRFSYMDTPRRVLRQRSCYALYTNPECHEILSKGLDRSPLYNGQIQSIGPRYCPSIETKIVTFADKEMHQLFLEPEGETSNEFYLNGFSSSLPLEIQLEALKAIPALRHVHIYRPGYAIEYDFFDPTQLRHTLETKPVKGLFFAGQINGTTGYEEAAGQGLIAGINAHLHCHGAGEFTLGRDEAYIGVLIDDLVSKGVDEPYRMFTSRAEYRILLRQDDADMRLTPKAEAIGLADSRRSELLREKQVFRDKLIDFTHKFSLKPDLINPHLESAGHLPLKQGIKLYDLLLRPQIGMNEVCSMVPSLQRIVEEIPASRREEIVEAAEILIKYDGYIKRERALADKINRLESIRLPQHVDYMQMQSLSTEARQKLTSIRPETIAQASRIPGVSPHDVSILLVLCGR”, “not soluble”. Regarding “MCMGIFKRVSNMVKAKVNNTLDEMENPIELLDQKIRDMEESLNKAKISSAQILGNAHEIEKKLQKARLESEDYDSKVKLAVKNGNDDLAKRALERKLDADKRESLQKSYEDASQKSKVIKDKLRTLEEEIEKTRAYRDEAAARFNNAEATKKVNEVLSNVDTGSNSINLDDIERKIERKEAMAEGLGDLRNEDSLEKEFEKLNETNLDDELAKYKNNIKLEHHHHHH”, the “soluble on expression in E. coli” value was “soluble”. As for “MSKLAEFREAERKLQEQLALLEKLKSDSSLKQELEFKDKLQALMDKYGMTLHNIIAILDPKAPVTVSAAPQRRARALKVYKNPNNGEVVETKGGNHKVLKAWKEQYGSETVESWLQR”, the entry is “not soluble”; as for “MSLDRKGNPVVRWDNNWLGSNEPCEDRWATDLVRRDGAAGGAVGKAVNFWTRWYRGDSIPSESAPAEEDEAARGKHDLMLFSIMDGHAGDATSRLLQKSLHPTISMALAGLQRGNVPPRHNVWERWAGYLNPWYWLGTDTVWTPENVSKTIQNAFVQLDDNICQTPLKLLPTLSSPSTSSPTPRETLVALAQPAAAGACAISTLVDSENDDLYVAVTGDCRAVAGWEGEDGKWRCDVLSEDQMGDNPKEIERMRSEHPASERDTVIRNGRVQGGLQPTRAFGDAVYKWTNAQAAQIADAFRAQGERPRPGRPWNYTPPYVTARPEVTYRKLNAHTGEKLRFIVLATDGLWDRITSEESTLLLASYLSHPSHAPLPKSALPRREGHHHHHH”, “soluble”; as for “MAHHHHHHMASTGNGGDSKAAASSLSPQKAGMVAPLTSAPPLTASTTSPSRLNSMRTANASASSKNNAPTGPSKKGGTAVKPSPEVGGKAAAGSSEPEPRASVNIDRQSKPNANSVNASNVADSTNAPSGKRPDHGRRGRRQECSSWFDAEKPAKADRPADKELNQNVQIVQDDIPDAEQAHREQAERAQRQKEKLARHISESPTGFQATLPRLNELDVTNSWDKLLRMMRSEFDMSCLTSCLARELDEDVAWNPEMLLVQLTSDMLDAAELQKDGGEAYVPVDASDIGQMTGGEVARRRKEKRSTTTAGGAAPAAGAAGGTEREPEKGSEKPAAASPTPAFQAAASKALRKQTTTDPAAAAPSSKKARDTDNAASTSTANSSSTRKRSAAGSRSGEASGGGGNNTNASSSTAKGDSADDTKSSKSTSLKAQVSKLFSK”, “not soluble”. With “MGSDKIHHHHHHMITTTIFPGRYVQGAGAINILEEELSRFGERAFVVIDDFVDKNVLGENFFSSFTKVRVNKQIFGGECSDEEIERLSGLVEEETDVVVGIGGGKTLDTAKAVAYKLKKPVVIVPTIASTDAPCSALSVIYTPNGEFKRYLFLPRNPDVVLVDTEIVAKAPARFLVAGMGDALATWFEAESCKQKYAPNMTGRLGSMTAYALARLCYETLLEYGVLAKRSVEEKSVTPALEKIVEANTLLSGLGFESGGLAAAHAIHNGLTVLENTHKYLHGEKVAIGVLASLFLTDKPRKMIEEVYSFCEEVGLPTTLAEIGLDGVSDEDLMKVAEKACDKNETIHNEPQPVTSKDVFFALKAADRYGRMRKNLT”, the “soluble on expression in E. coli” value is “soluble”. With “DSDWEDIHYAYFSAICQARKNVYIETPYFIPDESLLKAIKSAALSGVDVRIIFPKIADHKIVNIASYSYFEEILRAGGKVYLYNKGFIHSKVVIIDDKIASAGTANMDLRSFMLNFEVNAFIYDEEVIRVMTDDFFEDLSYCEELNLEVFKNR” the entry was “not soluble”; with “MSLKNISLAMLARQIGVGVATVDRVLNERGGVSPQTTRKVLQAAREAGLKRILPEEHRFPWQIEVFLSSNDSFFFPQLAQDFAAVADSLGYRRLTLHRTFVPESQPTTLARRIARSCQQRQGIIVFGNDHPAVHDALRRCREAGVPAITLATDLPGADRLCHVGINQLQAGRTAGLMLGRMTPRPGEVLMVSGRQDYSAHRLRIQGFREVLSQRFPHLQLSDVLAGEERREQITRLVEQALCRSRNIVGIYNTGLGNTQIAEALARHRREGDVCWITHERYNTTRQQLAKGSLALTLDQNTRQHAQLAIDLMLRHLESGYQPQTYADGKVDFILYSAENVDEGHHHHHH”, “soluble”; with “MQNFTLHTPTKVLFGTGQIAQLTQEIPADARILITYGGGSIKQNGVLDQVHQALKGFDFLEFGGIEPNPTYETLMKAVELCRTEGINFLLAVGGGSVLDGTKFIAAAVNYPQDPWHILETTGRDITEALPMGSVLTLPATGSEANNGAVISRRSTGDKQHFFSPHVQPLFAVLDPVVTYTLPPRQVANGVVDAFVHTIEQYLTYPVDAKVQDRFAEGLLLTLIEEGPKALKDPENYNVRANIMWSATMALNGLIGAGVPQDWATHMLGHELTARHGLDHAQTLAVVLPALLVAKKQQKRAKLLQYAERVWGLREGSEDQRIDAAIEATRHFFESLGVATRLSAYKLDGSSIPDLIKKLEEHGMTKLGEHSDITLADSKRIYEAAV”, “not soluble”. In the case of “MGSDKIHHHHHHMTFSAKNAAGETTGGVFTVALDRCAVYGRASSGAVCGSLLESAGWRPAAGSRVLVKPNLLRAQPDGLCCTHPQVVRAAVEYALDCGAVVTVGDSPAFGSAERVAQAVGLTDALQGLGVRVVTLDDPVDCRLPSGLRVGVARAALEADALLNVPRVKVHCQMRLTLAVKNLFGCVCGVRKAVAHTRHGDRGNRFEALIVELAERLPPSGVLLDGITAMHRTGPSGGDPYLLGLLGASCSSVAMDTAVGTLLGAAPETIPLWAELRRRKQPAAFVENLHFPVLFPADFSPQGVTPDGFCIPQVLKPVSFRPATLLRSLVRRMWHRYGPSA”, the “soluble on expression in E. coli” value is given as “not soluble”. As for “MHHHHHHGTSLYKKAGSENLYFQGITTRTARQCGQADYGWLQARYTFSFGHYFDPKLLGYASLRVLNQEVLAPGAAFQPRTYPKVDILNVILDGEAEYRDSEGNHVQASAGEALLLSTQPGVSYSEHNLSKDKPLTRMQLWLDACPQRENPLIQKLALNMGKQQLIASPEGAMGSLQLRQQVWLHHIVLDKGESANFQLHGPRAYLQSIHGKFHALTHHEEKAALTCGDGAFIRDEANITLVADSPLRALLIDLPV”, the entry is “soluble”; as for “MGSDKIHHHHHHMPKLIIDADDFGLSKAINHGIIESYKTGITTSTLLMPNLETAEHAIALAKNHPDLFIGQHTNFLLGKPCANPAEIPSLVDENGEFHRSKYYRANPELKFQYEDVRTETIAQMERFKALTGHYPEHIDCHSIGDETVDQAFFDIAREFGIHTTLKYSGDKKWSDQEGYLPITKLLESGALPYTNGGVSVENFLNDDFGLLKLAPNEIAEMHFDVGFLDQFVLDNSSYTLMRCRELATICDVRVRDWLLENGFELITFGDLQR”, “not soluble”; as for “MSLAAGYGVPLEQGEHRLGSSRVVVETAGDGLVRYRREVDGGGSVELLFDGTVDLQPVPMYPIFKPLYVTRFILLRIEPRIVVSPGSERTFYTLIPVDTAIYAFPGDEPTIVDVIPMDDKPSLVLYGPPESGVVARLAISSVSPRPEEPSLGRALARIAVKNISGTPVTLSRILLDSAPLKLYFERGTWRAYTQELAVEVERYRGVVMYRQPFREGTMPISDPPEVRPPRFFQRTDMMWGVEGHHHHHH”, “not soluble”.
